From the supplement of paper PMC9112550, “Optimization of the antimicrobial peptide Bac7 by deep mutational scanning” (BMC Biology, 2022)

Tested on: Escherichia coli TOP10
Test: shrunken log2 fold change of peptide-encoding DNA abundance (4.5 h post-induction vs induction); higher = less antimicrobial activity (less host growth inhibition)
Conditions: time post-induction: 4.5 h; library: site-saturation at positions 5, 18, 19, 20
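Note: peptides expressed intracellularly from a pBAD plasmid library in pooled LB shake-flask culture, induced with 0.3% L-arabinose, DNA abundance read by NGS, three biological replicates, DESeq2 with apeglm shrinkage.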

Sequence	shrunken log2 fold change
RRIRGRPPRLPRPRPRPEIDPRP	1.63
RRIRWRPPRLPRPRPRPCNYPRP	-0.2
RRIRLRPPRLPRPRPRPFIFPRP	-0.356
RRIRMRPPRLPRPRPRPNESPRP	0.923
RRIRMRPPRLPRPRPRPMQHPRP	0.579
RRIRMRPPRLPRPRPRPVQVPRP	-0.00884
RRIRQRPPRLPRPRPRPCAPPRP	0.226
RRIRMRPPRLPRPRPRPIHSPRP	-0.01
RRIRTRPPRLPRPRPRPKQLPRP	0.23
RRIRLRPPRLPRPRPRPQEQPRP	-0.00233
RRIRQRPPRLPRPRPRPRFKPRP	-0.128
RRIRMRPPRLPRPRPRPHMYPRP	-0.568
RRIRVRPPRLPRPRPRPELRPRP	0.123
RRIRKRPPRLPRPRPRPNPDPRP	0.383
RRIRQRPPRLPRPRPRPNWSPRP	0.148
RRIRGRPPRLPRPRPRPDGLPRP	0.053
RRIRHRPPRLPRPRPRPFQKPRP	0.00797
RRIRLRPPRLPRPRPRPRTFPRP	-0.0808
RRIRGRPPRLPRPRPRPYRWPRP	0.191
RRIRIRPPRLPRPRPRPMAQPRP	0.00812
RRIRGRPPRLPRPRPRPASLPRP	0.472
RRIRFRPPRLPRPRPRPYYRPRP	0.0478
RRIRHRPPRLPRPRPRPNQQPRP	-0.0412
RRIRGRPPRLPRPRPRPYIAPRP	-0.391
RRIRERPPRLPRPRPRPKCHPRP	-0.428

Sequence	shrunken log2 fold change
RRIRGRPPRLPRPRPRPPTRPRP	1
RRIRERPPRLPRPRPRPDTYPRP	0.0491
RRIRARPPRLPRPRPRPWITPRP	-0.0939
RRIRGRPPRLPRPRPRPDSQPRP	0.223
RRIRNRPPRLPRPRPRPDFWPRP	0.3
RRIRVRPPRLPRPRPRPNKIPRP	-0.295
RRIRERPPRLPRPRPRPEISPRP	-0.407
RRIRRRPPRLPRPRPRPQWDPRP	0.0215
RRIRRRPPRLPRPRPRPRPDPRP	0.855
RRIRDRPPRLPRPRPRPQSNPRP	-0.109
RRIRFRPPRLPRPRPRPADYPRP	-0.207
RRIRARPPRLPRPRPRPPHQPRP	0.952
RRIRMRPPRLPRPRPRPRVYPRP	0.0557
RRIRSRPPRLPRPRPRPGMVPRP	0.23
RRIRCRPPRLPRPRPRPSTAPRP	0.0354
RRIRHRPPRLPRPRPRPTTPPRP	0.0328
RRIRQRPPRLPRPRPRPWFFPRP	-0.0396
RRIRERPPRLPRPRPRPRKAPRP	0.444
RRIRFRPPRLPRPRPRPRSFPRP	-0.138
RRIRVRPPRLPRPRPRPNIWPRP	-0.13
RRIRCRPPRLPRPRPRPPCEPRP	-0.0942
RRIRKRPPRLPRPRPRPLMLPRP	0.007
RRIRHRPPRLPRPRPRPHMNPRP	-0.491
RRIRQRPPRLPRPRPRPFNHPRP	0.0419
RRIRYRPPRLPRPRPRPLMQPRP	-0.283

Sequence	shrunken log2 fold change
RRIRYRPPRLPRPRPRPTLIPRP	-0.743
RRIRQRPPRLPRPRPRPCPHPRP	-0.141
RRIRNRPPRLPRPRPRPNLPPRP	-0.0407
RRIRRRPPRLPRPRPRPLACPRP	0.491
RRIRYRPPRLPRPRPRPQHRPRP	-0.602
RRIRHRPPRLPRPRPRPIPSPRP	-0.274
RRIRCRPPRLPRPRPRPGECPRP	0.198
RRIRDRPPRLPRPRPRPKLEPRP	0.434
RRIRERPPRLPRPRPRPLWHPRP	-0.0827
RRIRRRPPRLPRPRPRPTYFPRP	0.0897
RRIRMRPPRLPRPRPRPVVHPRP	0.0142
RRIRKRPPRLPRPRPRPVGEPRP	1.18
RRIRRRPPRLPRPRPRPKTDPRP	0.163
RRIRMRPPRLPRPRPRPGFMPRP	0.0795
RRIRRRPPRLPRPRPRPDFSPRP	-0.18
RRIRRRPPRLPRPRPRPVHIPRP	-0.0107
RRIRIRPPRLPRPRPRPVVCPRP	-0.000979
RRIRIRPPRLPRPRPRPLDFPRP	0.0619
RRIRPRPPRLPRPRPRPISKPRP	-0.306
RRIRFRPPRLPRPRPRPDHRPRP	0.0119
RRIRPRPPRLPRPRPRPCRGPRP	-0.322
RRIRLRPPRLPRPRPRPVFYPRP	-0.5
RRIRPRPPRLPRPRPRPFSDPRP	-0.0761
RRIRYRPPRLPRPRPRPRLRPRP	0.0744
RRIRQRPPRLPRPRPRPSDLPRP	-0.333

Sequence	shrunken log2 fold change
RRIRSRPPRLPRPRPRPHAQPRP	0.0587
RRIRWRPPRLPRPRPRPWVHPRP	-0.597
RRIRSRPPRLPRPRPRPVFIPRP	-0.598
RRIRCRPPRLPRPRPRPWNNPRP	-0.107
RRIRCRPPRLPRPRPRPAGGPRP	0.489
RRIRCRPPRLPRPRPRPWLTPRP	-0.117
RRIRPRPPRLPRPRPRPVNHPRP	-0.277
RRIRQRPPRLPRPRPRPTYCPRP	-0.0981
RRIRARPPRLPRPRPRPYVEPRP	-0.162
RRIRVRPPRLPRPRPRPQTCPRP	-0.193
RRIRARPPRLPRPRPRPNGPPRP	0.149
RRIRSRPPRLPRPRPRPRVTPRP	0.169
RRIRMRPPRLPRPRPRPMYPPRP	-0.00194
RRIRCRPPRLPRPRPRPETCPRP	0.0181
RRIRGRPPRLPRPRPRPMCCPRP	0.164
RRIRGRPPRLPRPRPRPVCNPRP	0.636
RRIRCRPPRLPRPRPRPYEMPRP	-0.151
RRIRMRPPRLPRPRPRPVLQPRP	0.259
RRIRGRPPRLPRPRPRPGTSPRP	0.278
RRIRLRPPRLPRPRPRPMLHPRP	-0.34
RRIRQRPPRLPRPRPRPVIGPRP	-0.0941
RRIRQRPPRLPRPRPRPFAKPRP	-0.0663
RRIRHRPPRLPRPRPRPQSMPRP	-0.156
RRIRGRPPRLPRPRPRPFAAPRP	1.82
RRIRGRPPRLPRPRPRPEMDPRP	0.982

Sequence	shrunken log2 fold change
RRIRQRPPRLPRPRPRPEMLPRP	0.0554
RRIRDRPPRLPRPRPRPRSAPRP	0.321
RRIRNRPPRLPRPRPRPREGPRP	0.187
RRIRSRPPRLPRPRPRPLPEPRP	0.278
RRIRKRPPRLPRPRPRPDCYPRP	0.012
RRIRYRPPRLPRPRPRPYFPPRP	-0.702
RRIRERPPRLPRPRPRPDKVPRP	-0.121
RRIRRRPPRLPRPRPRPMHWPRP	0.148
RRIRVRPPRLPRPRPRPFKDPRP	-0.166
RRIRYRPPRLPRPRPRPSIFPRP	-0.654
RRIRPRPPRLPRPRPRPVMNPRP	-0.29
RRIRMRPPRLPRPRPRPLPRPRP	2.48
RRIRCRPPRLPRPRPRPLLFPRP	-0.277
RRIRTRPPRLPRPRPRPEMHPRP	-0.149
RRIRARPPRLPRPRPRPIASPRP	-0.0816
RRIRIRPPRLPRPRPRPIQLPRP	-0.058
RRIRNRPPRLPRPRPRPYIFPRP	-0.327
RRIRERPPRLPRPRPRPHCAPRP	0.201
RRIRIRPPRLPRPRPRPWWKPRP	-0.102
RRIRFRPPRLPRPRPRPMTGPRP	-0.0757
RRIRVRPPRLPRPRPRPMYMPRP	-0.748
RRIRTRPPRLPRPRPRPIFIPRP	-0.383
RRIRCRPPRLPRPRPRPARRPRP	0.555
RRIRERPPRLPRPRPRPKHCPRP	0.0411
RRIRTRPPRLPRPRPRPCMIPRP	-0.546
